Source: paper PMC11804915, “Single-stranded DNA binding to the transcription factor PafBC triggers the mycobacterial DNA damage response”

Legend:
PafBC WT [1] = biological target: T1, PafBC WT (Mycobacterium smegmatis, UniProt A4ZHT0;A0QZ41 1-331;1-318); experiment: EMSA; ssDNA EMSA: 22.5 mM Hepes-KOH pH 7.8, 135 mM NaCl, 20 mM KCl, 5 mM MgCl2, 1 mM DTT, 37 C 15 min, 10 nM DNA, 0-16 uM PafBC; RNAP EMSA: 20 mM Hepes-NaOH pH 8, 100 mM K-acetate, 36 mM NaCl, 10 mM MgCl2, 2 mM DTT, 37 C 30 min; settings: protein: recombinant, tags: C-terminal Strep on PafC, copies: 1;1, label: internal fluorescein-dT
T1 sequence 1: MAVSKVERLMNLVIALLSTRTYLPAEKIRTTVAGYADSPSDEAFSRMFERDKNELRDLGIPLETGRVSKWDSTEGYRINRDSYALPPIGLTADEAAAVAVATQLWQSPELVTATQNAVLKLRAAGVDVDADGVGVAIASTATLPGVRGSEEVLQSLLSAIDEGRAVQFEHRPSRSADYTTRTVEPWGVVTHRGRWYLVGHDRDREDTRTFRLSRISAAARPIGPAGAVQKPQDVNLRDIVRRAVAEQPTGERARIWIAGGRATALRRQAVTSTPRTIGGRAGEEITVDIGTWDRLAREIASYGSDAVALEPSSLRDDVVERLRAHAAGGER
T1 sequence 2: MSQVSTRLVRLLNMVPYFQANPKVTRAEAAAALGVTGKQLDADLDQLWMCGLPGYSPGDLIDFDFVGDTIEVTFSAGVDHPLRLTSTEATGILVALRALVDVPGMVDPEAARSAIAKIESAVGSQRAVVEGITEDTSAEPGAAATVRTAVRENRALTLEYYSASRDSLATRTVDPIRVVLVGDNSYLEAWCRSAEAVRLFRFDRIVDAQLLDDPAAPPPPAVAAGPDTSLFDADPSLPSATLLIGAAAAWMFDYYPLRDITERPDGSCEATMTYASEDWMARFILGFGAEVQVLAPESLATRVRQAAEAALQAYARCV

[2] = biological target: RNAP-sigmaA holoenzyme with RbpA;CarD;PafBC WT (Mycobacterium smegmatis SMR5 …, UniProt A0QSL8;P60281;A0QS66;A0QWT1;A0QW02;A0QZ11;A0R561;A4ZHT0;A0QZ41 …, ||); experiment: EMSA; ssDNA …; no effect of CarD on complex formation; ssDNA EMSA: 22.5 mM Hepes-KOH pH 7.8, 135 mM NaCl, 20 mM KCl, 5 mM MgCl2, 1 mM DTT, 37 C 15 min, 10 nM DNA, 0-16 uM PafBC; RNAP EMSA: 20 mM Hepes-NaOH pH 8, 100 mM K-acetate, 36 mM NaCl, 10 mM MgCl2, 2 mM DTT, 37 C 30 min; settings: protein: native;recombinant;recombinant; tags: TwinStrep on RpoC; His6 removed from SigA;His6-thioredoxin removed by TEV;C-terminal Strep on PafC; chain copies: 2;1;1;1;1;1;1;1;1; label: 5' FAM on strand 1; blunt, internal non-complementary bubble 13 nt
[3] = biological target: RNAP-sigmaA holoenzyme with RbpA;CarD;PafBC, PafB R181A/R204A/R208A (Mycobacterium smegmatis SMR5 …, UniProt A0QSL8;P60281;A0QS66;A0QWT1;A0QW02;A0QZ11;A0R561;A4ZHT0;A0QZ41 …, ||R204A;R208A;PafB:R181A); experiment: EMSA; 5 uM dT12 ssDNA; PafBC variant does not join RNAP-DNA; ssDNA EMSA: 22.5 mM Hepes-KOH pH 7.8, 135 mM NaCl, 20 mM KCl, 5 mM MgCl2, 1 mM DTT, 37 C 15 min, 10 nM DNA, 0-16 uM PafBC; RNAP EMSA: 20 mM Hepes-NaOH pH 8, 100 mM K-acetate, 36 mM NaCl, 10 mM MgCl2, 2 mM DTT, 37 C 30 min; settings: protein: native;recombinant;recombinant; tags: TwinStrep on RpoC; His6 removed from SigA;His6-thioredoxin removed by TEV;C-terminal Strep on PafC; chain copies: 2;1;1;1;1;1;1;1;1; label: 5' FAM on strand 1; blunt, internal non-complementary bubble 13 nt
[4] = biological target: RNAP-sigmaA holoenzyme with RbpA;CarD;PafBC, PafB WYL variant (Mycobacterium smegmatis SMR5 …, UniProt A0QSL8;P60281;A0QS66;A0QWT1;A0QW02;A0QZ11;A0R561;A4ZHT0;A0QZ41 …, ||R214A;PafB:R211A); experiment: as above; settings: protein: native;recombinant;recombinant; tags: TwinStrep on RpoC; His6 removed from SigA;His6-thioredoxin removed by TEV;C-terminal Strep on PafC; chain copies: 2;1;1;1;1;1;1;1;1; label: 5' FAM on strand 1; blunt, internal non-complementary bubble 13 nt
[5] = biological target: RNAP-sigmaA holoenzyme with RbpA;CarD;PafBC, PafB Y196A (Mycobacterium smegmatis SMR5 …, UniProt A0QSL8;P60281;A0QS66;A0QWT1;A0QW02;A0QZ11;A0R561;A4ZHT0;A0QZ41 …, ||Y196A); experiment: EMSA; 5 uM dT12 ssDNA; retains association with RNAP; ssDNA EMSA: 22.5 mM Hepes-KOH pH 7.8, 135 mM NaCl, 20 mM KCl, 5 mM MgCl2, 1 mM DTT, 37 C 15 min, 10 nM DNA, 0-16 uM PafBC; RNAP EMSA: 20 mM Hepes-NaOH pH 8, 100 mM K-acetate, 36 mM NaCl, 10 mM MgCl2, 2 mM DTT, 37 C 30 min; settings: protein: native;recombinant;recombinant; tags: TwinStrep on RpoC; His6 removed from SigA;His6-thioredoxin removed by TEV;C-terminal Strep on PafC; chain copies: 2;1;1;1;1;1;1;1;1; label: 5' FAM on strand 1; blunt, internal non-complementary bubble 13 nt
[6] = biological target: RNAP-sigmaA holoenzyme with RbpA;PafBC WT (Mycobacterium smegmatis SMR5 …, UniProt A0QSL8;P60281;A0QS66;A0QWT1;A0QW02;A0QZ11;A4ZHT0;A0QZ41 …, |); experiment: EMSA; 5 uM dT12 ssDNA; PafBC shifts RNAP-DNA band; ssDNA EMSA: 22.5 mM Hepes-KOH pH 7.8, 135 mM NaCl, 20 mM KCl, 5 mM MgCl2, 1 mM DTT, 37 C 15 min, 10 nM DNA, 0-16 uM PafBC; RNAP EMSA: 20 mM Hepes-NaOH pH 8, 100 mM K-acetate, 36 mM NaCl, 10 mM MgCl2, 2 mM DTT, 37 C 30 min; settings: protein: native;recombinant; tags: TwinStrep on RpoC; His6 removed from SigA;C-terminal Strep on PafC; chain copies: 2;1;1;1;1;1;1;1; label: 5' FAM on strand 1; blunt, internal non-complementary bubble 13 nt
[7] = biological target: RNAP-sigmaA holoenzyme with RbpA (Mycobacterium smegmatis SMR5 …, UniProt A0QSL8;P60281;A0QS66;A0QWT1;A0QW02;A0QZ11 1-350;1-1169;1-1317;1-107;1-466;1-114); experiment: EMSA; nonspecific binding; ssDNA EMSA: 22.5 mM Hepes-KOH pH 7.8, 135 mM NaCl, 20 mM KCl, 5 mM MgCl2, 1 mM DTT, 37 C 15 min, 10 nM DNA, 0-16 uM PafBC; RNAP EMSA: 20 mM Hepes-NaOH pH 8, 100 mM K-acetate, 36 mM NaCl, 10 mM MgCl2, 2 mM DTT, 37 C 30 min; settings: protein: native, tags: TwinStrep on RpoC, His6 removed from SigA, chain copies: 2;1;1;1;1;1, blunt
[8] = biological target: RNAP-sigmaA holoenzyme with RbpA;CarD;PafBC, PafC WYL variant (Mycobacterium smegmatis SMR5 …, UniProt A0QSL8;P60281;A0QS66;A0QWT1;A0QW02;A0QZ11;A0R561;A4ZHT0;A0QZ41 …, ||R201A;R204A); experiment: EMSA; 5 uM dT12 ssDNA; efficiency similar to WT; ssDNA EMSA: 22.5 mM Hepes-KOH pH 7.8, 135 mM NaCl, 20 mM KCl, 5 mM MgCl2, 1 mM DTT, 37 C 15 min, 10 nM DNA, 0-16 uM PafBC; RNAP EMSA: 20 mM Hepes-NaOH pH 8, 100 mM K-acetate, 36 mM NaCl, 10 mM MgCl2, 2 mM DTT, 37 C 30 min; settings: protein: native;recombinant;recombinant; tags: TwinStrep on RpoC; His6 removed from SigA;His6-thioredoxin removed by TEV;C-terminal Strep on PafC; chain copies: 2;1;1;1;1;1;1;1;1; label: 5' FAM on strand 1; blunt, internal non-complementary bubble 13 nt
PafBC WT, cryo-EM sample = biological target: T2, PafBC WT, cryo-EM sample (Mycobacterium smegmatis, UniProt A4ZHT0;A0QZ41 1-331;1-318); experiment: cryo-EM; within RNAP-sigmaA promoter complex; formaldehyde-fixed; second entry 9FNE; ssDNA EMSA: 22.5 mM Hepes-KOH pH 7.8, 135 mM NaCl, 20 mM KCl, 5 mM MgCl2, 1 mM DTT, 37 C 15 min, 10 nM DNA, 0-16 uM PafBC; RNAP EMSA: 20 mM Hepes-NaOH pH 8, 100 mM K-acetate, 36 mM NaCl, 10 mM MgCl2, 2 mM DTT, 37 C 30 min; settings: protein: recombinant; copies: 1;1; single strand
T2 sequence 1: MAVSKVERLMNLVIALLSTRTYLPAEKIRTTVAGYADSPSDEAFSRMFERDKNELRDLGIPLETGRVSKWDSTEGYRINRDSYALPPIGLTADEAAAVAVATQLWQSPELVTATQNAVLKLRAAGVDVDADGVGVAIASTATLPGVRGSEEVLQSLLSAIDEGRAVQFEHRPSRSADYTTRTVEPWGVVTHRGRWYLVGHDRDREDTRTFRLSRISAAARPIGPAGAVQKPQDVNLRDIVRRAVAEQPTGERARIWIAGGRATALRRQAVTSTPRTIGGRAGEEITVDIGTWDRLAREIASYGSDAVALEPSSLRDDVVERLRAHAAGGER
T2 sequence 2: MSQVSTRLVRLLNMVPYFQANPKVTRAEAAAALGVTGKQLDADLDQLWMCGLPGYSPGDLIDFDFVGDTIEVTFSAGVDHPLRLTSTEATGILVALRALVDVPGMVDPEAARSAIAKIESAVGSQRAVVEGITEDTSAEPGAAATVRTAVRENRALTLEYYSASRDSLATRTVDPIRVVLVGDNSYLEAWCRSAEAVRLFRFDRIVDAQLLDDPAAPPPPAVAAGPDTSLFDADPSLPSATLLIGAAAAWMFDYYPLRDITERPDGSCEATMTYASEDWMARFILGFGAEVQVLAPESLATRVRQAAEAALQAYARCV

PafBC WT [9] = biological target: T1, PafBC WT; experiment: analytical gel filtration; ssDNA:PafBC stoichiometry ~1:1; ssDNA EMSA: 22.5 mM Hepes-KOH pH 7.8, 135 mM NaCl, 20 mM KCl, 5 mM MgCl2, 1 mM DTT, 37 C 15 min, 10 nM DNA, 0-16 uM PafBC; RNAP EMSA: 20 mM Hepes-NaOH pH 8, 100 mM K-acetate, 36 mM NaCl, 10 mM MgCl2, 2 mM DTT, 37 C 30 min; settings: protein: recombinant; tags: C-terminal Strep on PafC; copies: 1;1; single strand

B1: hairpin DNA control (structured_DNA)
DNA: GGGCCCGGGCCCGGTATATCCGGGCCCGGGCCC
- binding result (PafBC WT [1]; hairpin, 14 bp stem, 5 nt loop): no binding

B2: PafBC-specific promoter with -10 bubble (dsDNA)
DNA 1: TCGTCTACTGTGGTGAAGAGTTCGACCGGACTTGTCGGTGGTCTGCTCTAACGTCACGGCCAACCGATCGGAACACC
DNA 2: GGTGTTCCGATCGGTACCGGACATGTAAAGAGCAGACCACCGACAAGTCCGGTCGAACTCTTCACCACAGTAGACGA
- binding result [2]: binds
- binding result [3]: no binding
- binding result [4]: no binding
- binding result [5]: binds
- binding result [6]: binds
- binding result ([7]; label: 5' FAM on strand 1, internal non-complementary bubble 13 nt): binds
- binding result [8]: binds

B3: housekeeping promoter with -10 bubble (dsDNA)
DNA 1: CCCCGTTTTGGGGCAGATGCGATTCTGAAATACTGCTTTGTCTGGCTTGTCAAGTCGCTCTGGACCGGGTTGTTTTC
DNA 2: GAAAACAACCCGGTCCAGAGCGACTTGACAAGCCAGACAAAGCAGTATTAAGCTGGCAGGGTTGCCCCAAAACGGGG
- binding result ([7]; label: 5' FAM on strand 2, internal non-complementary bubble): binds

B4: nonspecific DNA with bubble (dsDNA)
DNA 1: GTCGTGAAGGACACCGCCGAAGCGCCCAAGACGGCCGACGAGAAAGCCGCCGAGGCCACCGGGCCCAGCAAGGTCAA
DNA 2: TTGACCTTGCTGGGCGTCAGCATGCGAACGGCTTTCTCGTCGGCCGTCTTGGGCGCTTCGGCGGTGTCCTTCACGAC
- binding result ([7]; label: 5' FAM on strand 1, internal non-complementary bubble): binds

B5: cryo-EM ssDNA ligand (ssDNA)
DNA: TTGTTGTTGTT
- binding result (PafBC WT, cryo-EM sample): binds

B6: dT20 ssDNA unlabeled (ssDNA)
DNA: TTTTTTTTTTTTTTTTTTTT
- binding result (PafBC WT [9]): binds

B7: blocked end ssDNA (dT12 between two hairpins) (structured_DNA)
DNA: GGGCCCGGGCCCGGTATATCCGGGCCCGGGCCCTTTTTTTTTTTTCCCGGGCCCGGGCCTATATGGCCCGGGCCCGGG
- binding result (PafBC WT [1]; two hairpins, 14 bp stems, 5 nt loops): binds
